Earlier results, collected in PMC9477731.

Target: CD28 (Homo sapiens) (UniProt P10747)

Q: With CD80 (from UniProt P33681) as the substance, how does the Kd read?
A: The Kd was 4 µM.
